Source: patent US20260234247A1 (published 2026)
Changes are numbered by the printed parent chain.

Assays:
human LILRA2 = target: T1, human LILRA2 (human, UniProt Q8N149 24-449); experiment: ELISA, antibody at 200 nM, OD450; + = 2-fold over ISO
T1 construct: Bought protein; also called hLILRA2
Procedure: (§1) To further confirm binding affinity, selected clones were assayed in ELISA or FACS in a range of testing concentrations.

human LILRA1 = target: T2, human LILRA1 (human, UniProt O75019 17-461, limits assumed); experiment: as above
T2 construct: Bought protein; also called hLILRA1
Procedure: as §1

human LILRB4 = target: T3, human LILRB4 (human, UniProt Q8NHJ6 22-259); experiment: as above
T3 construct: Bought protein; also called hLILRB4
Procedure: as §1

human LILRA5 = target: T4, human LILRA5 (human, UniProt A6NI73 42-268, limits assumed); experiment: as above
T4 construct: Bought protein; also called hLILRA5
Procedure: as §1

human LILRA3 = target: T5, human LILRA3 (human, UniProt Q8N6C8 24-439); experiment: as above
T5 construct: Bought protein; also called hLILRA3
Procedure: as §1

human LILRA4 = target: T6, human LILRA4 (human, UniProt P59901 24-446); experiment: as above
T6 construct: Bought protein; also called hLILRA4
Procedure: as §1

human LILRB5 = target: T7, human LILRB5 (human, UniProt O75023 24-458); experiment: as above
T7 construct: Bought protein; also called hLILRB5
Procedure: as §1

[1] = target: T8, human LILRA2 on CHOK1-human LILRA2 cell line (human, UniProt Q8N149 24-483); experiment: flow cytometry on CHOK1-human LILRA2 cell line (FIG. 2A)
T8 construct: whole, on cells
T8 sequence (Q8N149 24-483): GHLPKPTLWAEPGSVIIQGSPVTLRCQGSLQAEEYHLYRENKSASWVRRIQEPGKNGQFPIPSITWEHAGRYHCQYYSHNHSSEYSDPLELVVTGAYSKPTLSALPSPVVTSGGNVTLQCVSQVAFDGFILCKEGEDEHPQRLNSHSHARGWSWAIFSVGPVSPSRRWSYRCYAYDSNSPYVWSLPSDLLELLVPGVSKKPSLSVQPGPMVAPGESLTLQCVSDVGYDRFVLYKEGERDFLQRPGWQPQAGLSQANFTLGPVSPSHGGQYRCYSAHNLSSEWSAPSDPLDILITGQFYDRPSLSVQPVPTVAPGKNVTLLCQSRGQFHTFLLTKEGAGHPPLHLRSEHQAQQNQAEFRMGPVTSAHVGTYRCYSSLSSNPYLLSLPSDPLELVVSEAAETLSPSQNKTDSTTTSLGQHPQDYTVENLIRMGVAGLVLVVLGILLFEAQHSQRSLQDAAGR

T5 sequence (Q8N6C8 24-439 limits assumed): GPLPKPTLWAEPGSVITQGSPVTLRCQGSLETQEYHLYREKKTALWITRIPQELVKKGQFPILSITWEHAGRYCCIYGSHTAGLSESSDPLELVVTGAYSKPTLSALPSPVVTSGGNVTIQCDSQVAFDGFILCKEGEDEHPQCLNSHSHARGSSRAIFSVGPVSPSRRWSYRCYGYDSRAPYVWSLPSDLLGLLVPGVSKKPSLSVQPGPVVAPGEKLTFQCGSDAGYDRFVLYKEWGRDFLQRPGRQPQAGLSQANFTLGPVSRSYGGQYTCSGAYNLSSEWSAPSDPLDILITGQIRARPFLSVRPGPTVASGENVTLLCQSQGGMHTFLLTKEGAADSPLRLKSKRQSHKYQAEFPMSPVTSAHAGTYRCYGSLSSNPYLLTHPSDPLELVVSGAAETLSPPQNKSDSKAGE
T2 sequence (O75019 17-461 limits assumed): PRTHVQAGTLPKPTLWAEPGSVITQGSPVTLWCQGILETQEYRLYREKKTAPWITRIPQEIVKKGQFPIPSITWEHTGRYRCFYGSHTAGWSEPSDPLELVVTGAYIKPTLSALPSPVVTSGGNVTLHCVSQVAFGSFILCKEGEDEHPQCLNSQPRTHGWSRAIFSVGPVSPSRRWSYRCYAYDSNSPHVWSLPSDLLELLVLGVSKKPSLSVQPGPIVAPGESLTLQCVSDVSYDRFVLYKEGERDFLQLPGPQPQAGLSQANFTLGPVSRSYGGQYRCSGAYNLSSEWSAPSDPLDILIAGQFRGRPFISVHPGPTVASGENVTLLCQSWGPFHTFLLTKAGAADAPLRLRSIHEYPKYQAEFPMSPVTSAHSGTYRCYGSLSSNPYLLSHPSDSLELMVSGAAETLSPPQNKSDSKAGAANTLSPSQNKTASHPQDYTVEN
T7 sequence (O75023 24-458 limits assumed): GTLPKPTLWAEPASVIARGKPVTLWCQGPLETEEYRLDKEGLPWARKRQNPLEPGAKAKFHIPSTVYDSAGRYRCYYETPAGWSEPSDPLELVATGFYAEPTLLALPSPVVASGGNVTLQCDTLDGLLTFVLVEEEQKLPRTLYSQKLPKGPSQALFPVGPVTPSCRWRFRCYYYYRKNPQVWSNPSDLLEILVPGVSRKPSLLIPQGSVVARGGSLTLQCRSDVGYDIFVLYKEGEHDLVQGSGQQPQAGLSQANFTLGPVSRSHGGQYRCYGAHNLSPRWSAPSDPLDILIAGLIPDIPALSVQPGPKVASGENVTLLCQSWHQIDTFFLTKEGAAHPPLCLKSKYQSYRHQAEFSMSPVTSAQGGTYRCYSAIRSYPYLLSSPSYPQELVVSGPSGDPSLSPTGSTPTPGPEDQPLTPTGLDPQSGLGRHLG
T1 sequence (Q8N149 24-449 limits assumed): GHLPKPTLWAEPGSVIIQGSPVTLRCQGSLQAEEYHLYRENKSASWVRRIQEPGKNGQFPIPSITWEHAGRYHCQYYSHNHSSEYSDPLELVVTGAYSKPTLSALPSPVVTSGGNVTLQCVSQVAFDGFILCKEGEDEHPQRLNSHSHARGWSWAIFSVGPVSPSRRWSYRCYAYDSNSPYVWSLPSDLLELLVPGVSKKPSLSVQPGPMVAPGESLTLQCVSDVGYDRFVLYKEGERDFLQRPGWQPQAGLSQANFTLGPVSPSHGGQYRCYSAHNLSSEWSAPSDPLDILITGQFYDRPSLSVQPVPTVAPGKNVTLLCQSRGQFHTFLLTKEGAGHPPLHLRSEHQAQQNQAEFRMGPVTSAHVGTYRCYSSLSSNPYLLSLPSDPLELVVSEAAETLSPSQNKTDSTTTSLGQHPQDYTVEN
T4 sequence (A6NI73 42-268 limits assumed): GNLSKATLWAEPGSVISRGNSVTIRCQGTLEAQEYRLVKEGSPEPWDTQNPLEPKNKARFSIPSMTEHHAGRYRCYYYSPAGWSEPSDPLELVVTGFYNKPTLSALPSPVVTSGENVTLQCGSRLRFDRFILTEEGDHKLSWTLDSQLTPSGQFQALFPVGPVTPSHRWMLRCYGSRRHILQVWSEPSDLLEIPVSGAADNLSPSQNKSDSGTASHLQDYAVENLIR
T6 sequence (P59901 24-446 limits assumed): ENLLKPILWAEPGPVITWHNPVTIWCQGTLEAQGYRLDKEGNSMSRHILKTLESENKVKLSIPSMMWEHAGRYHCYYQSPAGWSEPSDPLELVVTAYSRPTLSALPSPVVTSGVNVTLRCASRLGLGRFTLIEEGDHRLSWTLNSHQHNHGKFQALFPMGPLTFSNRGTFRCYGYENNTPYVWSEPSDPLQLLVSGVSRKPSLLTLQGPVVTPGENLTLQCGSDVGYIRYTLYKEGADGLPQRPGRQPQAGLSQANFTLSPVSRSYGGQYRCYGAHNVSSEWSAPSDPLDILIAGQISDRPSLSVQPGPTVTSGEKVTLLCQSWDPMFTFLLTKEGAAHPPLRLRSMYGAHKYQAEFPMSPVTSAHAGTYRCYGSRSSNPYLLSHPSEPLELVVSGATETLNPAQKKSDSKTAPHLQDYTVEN

B1: LK-RB2-10 (antibody, human IgG4 S228P, kappa, V domains shown)
VH: EVMLVESGGDLVKPGGSLKLSCAASGFTFSANTVSWLRRTPERRLEWVATISGGSDNTYCPDSVKGRFTISRDNARDTLYLQMSSLTSEDTALYFCARHYYDGPNWYFDVWGPGTTVTVSS
VL: DIVMTQSQKFMSSTGGDRVTITCKASQNVDTAVAWYQQKPGQSPKLLIYSASNRYIGVPDRFKGSGSGTDFSLTITNIQSEDLAEYFCQQYSSYPLTFGAGTKLELKR
binding result (human LILRA2): binds

B2: LK-RB2-8 (antibody, human IgG4 S228P, kappa, V domains shown)
VH: QIQLVQSGPELKKPGETVKISCKASGYSFASYGMGWVKQAPGKGLKWLGWINTHSGVPTYADDFKGRFAFSLETSASTAYLQINNLKNEDTATYFCAHYGRPWFPYWGQGTLVTVSA
VL: DIQMTQSPASLSASVGETVTITCRTSENIYSYLAWYQQKQGKSPQLLVYNAKSLAEGVPSRFSGSGSGTQFSLRINSLQPEDFGTYYCQQHYETPLTFGAGTKLELKR
binding result (human LILRA1): binds
binding result (human LILRB4): binds
binding result (human LILRA5): binds
binding result (human LILRA3): binds

B3: LK-RB2-16 (antibody, human IgG4 S228P, kappa, V domains shown)
VH: B2 VH with S28T, A30T, S31T, G42E, L48M, H54N, V57A, A61G, P105A
VL: B2 VL with T25A, Q37H, K42E, S53T, R74K, T85S, Q90H, E93N, T94I
binding result (human LILRA4): binds
binding result (human LILRB5): binds

B4: hz73D1.v1 (antibody, human IgG4 S228P, kappa, V domains shown)
VH: QVQLVQSGAEVKKPGASVKVSCKASGYTFTDYYINWVRQAPGQGLEWMGNVNPNDGGTTYNQKFKGRVTMTTDTSTSTAYMELRSLRSDDTAVYYCARREIYFYGTIYYYAMDYWGQGTLVTVSS
VL: DIQLTQSPSFLSASVGDRVTITCRASESVDYYGNSFMYWYQQKPGKAPKLLIYFASNLESGVPSRFSGSGSGTEFTLTISSLQPEDFATYYCQQNNEDPWTFGGGTKVEIKR
binding result [1]: no binding
